Results: patent US20260274985A1 (MYTHIC THERAPEUTICS, published 2026)

B1: MYT12390 (antibody, V domains shown)
VH: QVQLVQSGAEVKKPGASVKVSCKASGYTFTTAGMQWVRQAPGQGLEWMGWINTHSGVPKYAEDFKGRVTISADTSTSTAYLQLSSLKSEDTAVYYCARSGFGSSYWYFDVWGQGTLVTVSS
VL: DIQMTQSPSSLSASVGDRVTITCKASQHVSTAVAWYQQKPGKAPKLLIYSASYRYTGVPSRFSGSGSGTDFTLTISSLQPEDFAVYYCHQHYITPLTFGQGTKLEIK
notes: datopotamab VL 28, 89 substituted
B2: MYT12396 (antibody, V domains shown)
VH: QVQLVQSGAEVKKPGASVKVSCKASGYTFTTAGMQWVRQAPGQGLEWMGWINTHSGVPKYAEDFKGRVTISADTSTSTAYLQLSSLKSEDTAVYYCARSGFGSSYWYFDVWGQGTLVTVSS
VL: DIQMTQSPSSLSASVGDRVTITCKASQDVSTAVAWYQQKPGKAPKLLIYSAHYRYTGVPSRFSGSGSGTDFTLTISSLQPEDFAVYYCQQHHITPLTFGQGTKLEIK
notes: datopotamab VL 52, 92 substituted
B3: MYT13412 (antibody, V domains shown)
VH: QVQLQQSGSELKKPGASVKVSCKASGYTFTNYGMNWVKQAPGQGLKWMGWINTYTGEPTYTDDFHGRFAFSLDTSVSTAYLQISSLKADDTAVYFCARGGFGSSYWYFDVWGQGSLVTVSS
VL: DIQLTQSPSSLSASVGDRVSITCKASQDVSIAVAWYQQKPGKAPKLLIYSHHYRYTGVPDRFSGSGSGTDFTLTISSLQPEDFAVYYCQQHYITPLTFGAGTKVEIK
notes: Sacituzumab HC-LC pairing variant
B4: MYT13423 (antibody, V domains shown)
VH: QVQLQQSGSELKKPGASVKVSCKASGYTFTNYHMNWVKQAPGQGLKWMGWINTYTGEPTYTDDFKGRFAFSLDTSVSTAYLQISSLKADDTAVYFCARGGFGSSYWYFDVWGQGSLVTVSS
VL: DIQLTQSPSSLSASVGDRVSITCKASQDVHIAVAWYQQKPGKAPKLLIYSHSYRYTGVPDRFSGSGSGTDFTLTISSLQPEDFAVYYCQQHYHTPLTFGAGTKVEIK
notes: as for B3
B5: MYT13436 (antibody, V domains shown)
VH: QVQLQQSGSELKKPGASVKVSCKASGYTFTNYGMNWVKQAPGQGLKWMGWINTYTGEPTYTDDFHGRFAFSLDTSVSTAYLQISSLKADDTAVYFCARGGFGSSYWYFDVWGQGSLVTVSS
VL: DIQLTQSPSSLSASVGDRVSITCKASQDVSIAVAWYQQKPGKAPKLLIYSHSHRYTGVPDRFSGSGSGTDFTLTISSLQPEDFAVYYCQQHYHTPLTFGAGTKVEIK
notes: as for B3
B6: MYT12391 (antibody, V domains shown)
VH: QVQLVQSGAEVKKPGASVKVSCKASGYTFTTAGMQWVRQAPGQGLEWMGWINTHSGVPKYAEDFKGRVTISADTSTSTAYLQLSSLKSEDTAVYYCARSGFGSSYWYFDVWGQGTLVTVSS
VL: DIQMTQSPSSLSASVGDRVTITCKASQHVSTAVAWYQQKPGKAPKLLIYSASYRYTGVPSRFSGSGSGTDFTLTISSLQPEDFAVYYCQQHHITPLTFGQGTKLEIK
notes: datopotamab VL 28, 92 substituted
B7: MYT12400 (antibody, V domains shown)
VH: QVQLVQSGAEVKKPGASVKVSCKASGYTFTTAGMQWVRQAPGQGLEWMGWINTHSGVPKYAEDFKGRVTISADTSTSTAYLQLSSLKSEDTAVYYCARSGFGSSYWYFDVWGQGTLVTVSS
VL: DIQMTQSPSSLSASVGDRVTITCKASQHVSTAVAWYQQKPGKAPKLLIYSHSYRYTGVPSRFSGSGSGTDFTLTISSLQPEDFAVYYCQQHHITPLTFGQGTKLEIK
notes: datopotamab VL 28, 51, 92 substituted
B8: MYT12401 (antibody, V domains shown)
VH: QVQLVQSGAEVKKPGASVKVSCKASGYTFTTAGMQWVRQAPGQGLEWMGWINTHSGVPKYAEDFKGRVTISADTSTSTAYLQLSSLKSEDTAVYYCARSGFGSSYWYFDVWGQGTLVTVSS
VL: DIQMTQSPSSLSASVGDRVTITCKASQHVSTAVAWYQQKPGKAPKLLIYSAHYRYTGVPSRFSGSGSGTDFTLTISSLQPEDFAVYYCHQHYITPLTFGQGTKLEIK
notes: datopotamab VL 28, 52, 89 substituted
B9: MYT12397 (antibody, V domains shown)
VH: QVQLVQSGAEVKKPGASVKVSCKASGYTFTTAGMQWVRQAPGQGLEWMGWINTHSGVPKYAEDFKGRVTISADTSTSTAYLQLSSLKSEDTAVYYCARSGFGSSYWYFDVWGQGTLVTVSS
VL: DIQMTQSPSSLSASVGDRVTITCKASQDVSTAVAWYQQKPGKAPKLLIYSASYRYTGVPSRFSGSGSGTDFTLTISSLQPEDFAVYYCHQHHITPLTFGQGTKLEIK
notes: datopotamab VL 89, 92 substituted
B10: MYT13430 (antibody, V domains shown)
VH: QVQLQQSGSELKKPGASVKVSCKASGYTFTNHGMNWVKQAPGQGLKWMGWINTYTGEPTYTDDFKGRFAFSLDTSVSTAYLQISSLKADDTAVYFCARGGFGSSYWYFDVWGQGSLVTVSS
VL: DIQLTQSPSSLSASVGDRVSITCKASQDVSIAVAWYQQKPGKAPKLLIYSHSHRYTGVPDRFSGSGSGTDFTLTISSLQPEDFAVYYCQQHYHTPLTFGAGTKVEIK
notes: as for B3
B11: MYT12403 (antibody, V domains shown)
VH: QVQLVQSGAEVKKPGASVKVSCKASGYTFTTAGMQWVRQAPGQGLEWMGWINTHSGVPKYAEDFKGRVTISADTSTSTAYLQLSSLKSEDTAVYYCARSGFGSSYWYFDVWGQGTLVTVSS
VL: DIQMTQSPSSLSASVGDRVTITCKASQHVSTAVAWYQQKPGKAPKLLIYSASYRYTGVPSRFSGSGSGTDFTLTISSLQPEDFAVYYCHQHHITPLTFGQGTKLEIK
notes: datopotamab VL 28, 89, 92 substituted
B12: MYT13409 (antibody, V domains shown)
VH: QVQLQQSGSELKKPGASVKVSCKASGYTFTNYGMNWVKQAPGQGLKWMGWINTYTGEPTYTHDFKGRFAFSLDTSVSTAYLQISSLKADDTAVYFCARGGFGSSYWYFDVWGQGSLVTVSS
VL: DIQLTQSPSSLSASVGDRVSITCKASQDVSIAVAWYQQKPGKAPKLLIYSHHYRYTGVPDRFSGSGSGTDFTLTISSLQPEDFAVYYCQQHYITPLTFGAGTKVEIK
notes: as for B3
B13: MYT13411 (antibody, V domains shown)
VH: QVQLQQSGSELKKPGASVKVSCKASGYTFTNYGMNWVKQAPGQGLKWMGWINTYTGEPTYTDDHKGRFAFSLDTSVSTAYLQISSLKADDTAVYFCARGGFGSSYWYFDVWGQGSLVTVSS
VL: DIQLTQSPSSLSASVGDRVSITCKASQDVSIAVAWYQQKPGKAPKLLIYSHHYRYTGVPDRFSGSGSGTDFTLTISSLQPEDFAVYYCQQHYITPLTFGAGTKVEIK
notes: as for B3
B14: MYT12402 (antibody, V domains shown)
VH: QVQLVQSGAEVKKPGASVKVSCKASGYTFTTAGMQWVRQAPGQGLEWMGWINTHSGVPKYAEDFKGRVTISADTSTSTAYLQLSSLKSEDTAVYYCARSGFGSSYWYFDVWGQGTLVTVSS
VL: DIQMTQSPSSLSASVGDRVTITCKASQHVSTAVAWYQQKPGKAPKLLIYSAHYRYTGVPSRFSGSGSGTDFTLTISSLQPEDFAVYYCQQHHITPLTFGQGTKLEIK
notes: datopotamab VL 28, 52, 92 substituted
B15: MYT12394 (antibody, V domains shown)
VH: QVQLVQSGAEVKKPGASVKVSCKASGYTFTTAGMQWVRQAPGQGLEWMGWINTHSGVPKYAEDFKGRVTISADTSTSTAYLQLSSLKSEDTAVYYCARSGFGSSYWYFDVWGQGTLVTVSS
VL: DIQMTQSPSSLSASVGDRVTITCKASQDVSTAVAWYQQKPGKAPKLLIYSHSYRYTGVPSRFSGSGSGTDFTLTISSLQPEDFAVYYCQQHHITPLTFGQGTKLEIK
notes: datopotamab VL 51, 92 substituted
B16: MYT13414 (antibody, V domains shown)
VH: QVQLQQSGSELKKPGASVKVSCKASGYTFTNHGMNWVKQAPGQGLKWMGWINTYTGEPTYTDDFKGRFAFSLDTSVSTAYLQISSLKADDTAVYFCARGGFGSSYWYFDVWGQGSLVTVSS
VL: DIQLTQSPSSLSASVGDRVSITCKASQDVHIAVAWYQQKPGKAPKLLIYSHSYRYTGVPDRFSGSGSGTDFTLTISSLQPEDFAVYYCHQHYITPLTFGAGTKVEIK
notes: as for B3
B17: MYT13408 (antibody, V domains shown)
VH: QVQLQQSGSELKKPGASVKVSCKASGYTFTNYGMNWVKQAPGQGLKWMGWINTYTGEPTHTDDFKGRFAFSLDTSVSTAYLQISSLKADDTAVYFCARGGFGSSYWYFDVWGQGSLVTVSS
VL: DIQLTQSPSSLSASVGDRVSITCKASQDVSIAVAWYQQKPGKAPKLLIYSHHYRYTGVPDRFSGSGSGTDFTLTISSLQPEDFAVYYCQQHYITPLTFGAGTKVEIK
notes: as for B3
B18: MYT13410 (antibody, V domains shown)
VH: QVQLQQSGSELKKPGASVKVSCKASGYTFTNYGMNWVKQAPGQGLKWMGWINTYTGEPTYTDHFKGRFAFSLDTSVSTAYLQISSLKADDTAVYFCARGGFGSSYWYFDVWGQGSLVTVSS
VL: DIQLTQSPSSLSASVGDRVSITCKASQDVSIAVAWYQQKPGKAPKLLIYSHHYRYTGVPDRFSGSGSGTDFTLTISSLQPEDFAVYYCQQHYITPLTFGAGTKVEIK
notes: as for B3

Key:
[1] = target: T1, Human TROP2 Protein, His Tag (Acro Biosystems) (human, UniProt P09758 27-274); test: BLI (Octet)
T1 construct: not shown: His tag
T1 sequence (looked up): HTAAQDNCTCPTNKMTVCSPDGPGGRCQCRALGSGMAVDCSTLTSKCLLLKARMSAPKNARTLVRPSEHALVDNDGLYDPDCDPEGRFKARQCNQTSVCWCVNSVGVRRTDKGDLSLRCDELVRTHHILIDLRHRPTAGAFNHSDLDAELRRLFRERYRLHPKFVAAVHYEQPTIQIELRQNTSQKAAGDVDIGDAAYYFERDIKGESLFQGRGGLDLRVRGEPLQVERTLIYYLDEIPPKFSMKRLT

[2] = target: T2, Human TROP2 Protein, His Tag (Acro Biosystems) (human, UniProt P09758 27-274); test: BLI (Octet) [2/2]
T2 construct: also called TACSTD2; not shown: His tag
T2 sequence (looked up): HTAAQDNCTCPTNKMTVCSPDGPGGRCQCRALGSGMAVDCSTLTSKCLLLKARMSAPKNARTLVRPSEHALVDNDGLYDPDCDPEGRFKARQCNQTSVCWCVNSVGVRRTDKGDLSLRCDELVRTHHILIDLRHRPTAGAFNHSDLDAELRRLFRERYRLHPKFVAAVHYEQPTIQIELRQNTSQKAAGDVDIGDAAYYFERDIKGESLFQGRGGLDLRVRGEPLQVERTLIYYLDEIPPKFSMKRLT

Binder	binding result [1]	binding result [2]
B1	no binding (tested: 50 nM)	
B2	no binding (tested: 50 nM)	
B3		binds
B4		binds
B5		binds
B6	no binding (tested: 50 nM)	
B7	no binding (tested: 50 nM)	
B8	no binding (tested: 50 nM)	
B9	no binding (tested: 50 nM)	
B10		binds
B11	no binding (tested: 50 nM)	
B12		binds
B13		binds
B14	no binding (tested: 50 nM)	
B15	no binding (tested: 50 nM)	
B16		binds
B17		binds
B18		binds
